The target of the assay is OSM-3 H207Q mutant, EGFP tagged (C. elegans) (UniProt P46873).
Chain of UniProt P46873 (P46873 whole entry H207Q): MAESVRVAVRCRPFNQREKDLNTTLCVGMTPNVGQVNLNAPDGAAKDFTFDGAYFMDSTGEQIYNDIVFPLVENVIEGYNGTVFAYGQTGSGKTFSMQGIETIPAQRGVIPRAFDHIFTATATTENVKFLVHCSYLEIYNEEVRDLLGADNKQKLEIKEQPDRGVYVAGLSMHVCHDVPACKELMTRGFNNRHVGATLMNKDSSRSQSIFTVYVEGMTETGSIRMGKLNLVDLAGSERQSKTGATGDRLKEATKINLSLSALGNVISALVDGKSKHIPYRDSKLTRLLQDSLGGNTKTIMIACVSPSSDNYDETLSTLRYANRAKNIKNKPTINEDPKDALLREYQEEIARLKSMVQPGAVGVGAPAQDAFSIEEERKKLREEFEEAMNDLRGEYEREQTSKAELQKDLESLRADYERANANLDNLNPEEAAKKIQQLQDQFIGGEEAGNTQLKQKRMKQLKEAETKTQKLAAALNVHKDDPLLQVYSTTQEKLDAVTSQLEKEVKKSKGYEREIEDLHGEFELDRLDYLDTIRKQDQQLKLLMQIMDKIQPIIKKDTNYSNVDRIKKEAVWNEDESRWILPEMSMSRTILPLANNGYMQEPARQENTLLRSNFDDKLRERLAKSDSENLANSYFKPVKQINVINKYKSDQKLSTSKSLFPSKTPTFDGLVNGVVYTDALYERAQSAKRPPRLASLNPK

microtubules (complex): the microtubule-stimulated ATPase activity relative to wild-type OSM-3 (set to 100%) came to 18%.

The values are drawn from article PMC11217292.
